# Laboratory results as given in PMC4475061 (2015).
# Tests used:
# [1] = target: IST1 MIMs peptide (residues 316–366), fluorescently labeled (human, Oregon Green 488 maleimide on the non-native N-terminal cysteine); assay: FP
# [2] = target: IST1 MIM2 peptide (residues 316–343); assay: FP
Kd [1],Kd [2],Binder
0.32 µM,–,ULK3(MIT)2 V338D (domain or fragment) GPHMSGESLGRATALVVQAVKKDQEGDSAAALSLYCKALDFFVPALHYEVDAQRKEAIKAKVGQYDSRAEELKAIVSSSNQALLRQGTSARDLLREMARDKPRLLAALEVASAAMAKEEAAGGEQDALDLYQHSLGELLLLLAAEPPGRRRELLHTEVQNLMARAEYLKEQVKMRES
–,> 300 µM,ULK3(MIT)2 (residues 277–449) (domain or fragment) GPHMSGESLGRATALVVQAVKKDQEGDSAAALSLYCKALDFFVPALHYEVDAQRKEAIKAKVGQYVSRAEELKAIVSSSNQALLRQGTSARDLLREMARDKPRLLAALEVASAAMAKEEAAGGEQDALDLYQHSLGELLLLLAAEPPGRRRELLHTEVQNLMARAEYLKEQVKMRES
24.3 µM,–,ULK3(MIT)2 M434D (domain or fragment) GPHMSGESLGRATALVVQAVKKDQEGDSAAALSLYCKALDFFVPALHYEVDAQRKEAIKAKVGQYVSRAEELKAIVSSSNQALLRQGTSARDLLREMARDKPRLLAALEVASAAMAKEEAAGGEQDALDLYQHSLGELLLLLAAEPPGRRRELLHTEVQNLDARAEYLKEQVKMRES
